Laboratory results reported in paper PMC9482650, “Quantitative fragmentomics allow affinity mapping of interactomes” (Nature Communications, 2022).
Residue numbers refer to the chain shown, from its start.

T1: MPP6, Q9NZW5
T1 sequence (Q9NZW5 125-219, limits assumed, looked up): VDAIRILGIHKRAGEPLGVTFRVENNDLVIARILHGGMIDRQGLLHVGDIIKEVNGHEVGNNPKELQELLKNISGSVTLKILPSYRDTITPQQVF

T2: GRIP1_3, Q9Y3R0
T2 sequence (Q9Y3R0 247-346, limits assumed, looked up): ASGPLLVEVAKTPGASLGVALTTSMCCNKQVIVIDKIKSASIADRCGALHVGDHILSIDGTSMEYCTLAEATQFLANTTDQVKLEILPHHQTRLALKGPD

T3: HTRA4, P83105
T3 sequence (P83105 378-476, limits assumed, looked up): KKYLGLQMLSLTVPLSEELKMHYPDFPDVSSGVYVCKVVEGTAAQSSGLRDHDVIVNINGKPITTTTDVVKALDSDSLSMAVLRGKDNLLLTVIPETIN

T4: APBA1_1, Q02410
T4 sequence (Q02410 651-752, limits assumed, looked up): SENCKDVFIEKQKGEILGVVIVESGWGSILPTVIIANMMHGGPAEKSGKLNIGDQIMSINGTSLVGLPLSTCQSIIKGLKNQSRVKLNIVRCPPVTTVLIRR

T5: DFNB31_1, Q9P202
T5 sequence (Q9P202 135-233, limits assumed, looked up): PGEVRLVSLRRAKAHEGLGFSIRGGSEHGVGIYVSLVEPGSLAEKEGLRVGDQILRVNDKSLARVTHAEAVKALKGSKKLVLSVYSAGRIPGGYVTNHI

T6: GRIP1_2, Q9Y3R0
T6 sequence (Q9Y3R0 145-248, limits assumed, looked up): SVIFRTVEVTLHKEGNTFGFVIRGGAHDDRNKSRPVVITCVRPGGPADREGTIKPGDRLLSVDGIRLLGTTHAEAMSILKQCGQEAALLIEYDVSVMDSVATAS

T7: GRIP1_4, Q9Y3R0
T7 sequence (Q9Y3R0 467-571, limits assumed, looked up): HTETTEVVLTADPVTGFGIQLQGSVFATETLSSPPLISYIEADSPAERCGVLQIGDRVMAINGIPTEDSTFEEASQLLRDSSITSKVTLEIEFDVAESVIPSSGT

T8: PDZD7_3, Q9H5P4
T8 sequence (Q9H5P4 857-944, limits assumed, looked up): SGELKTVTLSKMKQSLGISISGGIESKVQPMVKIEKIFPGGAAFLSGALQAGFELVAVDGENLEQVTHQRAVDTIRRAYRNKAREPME

T9: MPP7, Q5T2T1
T9 sequence (Q5T2T1 134-230, limits assumed, looked up): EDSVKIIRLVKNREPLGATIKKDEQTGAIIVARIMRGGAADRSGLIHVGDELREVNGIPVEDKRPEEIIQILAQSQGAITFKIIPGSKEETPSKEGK

T10: APBA1_2, Q02410
T10 sequence (Q02410 742-832, limits assumed, looked up): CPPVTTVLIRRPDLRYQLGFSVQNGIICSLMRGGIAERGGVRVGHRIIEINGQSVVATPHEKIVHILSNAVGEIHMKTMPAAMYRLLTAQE

T11: ARHGEF11, O15085
T11 sequence (O15085 42-136, limits assumed, looked up): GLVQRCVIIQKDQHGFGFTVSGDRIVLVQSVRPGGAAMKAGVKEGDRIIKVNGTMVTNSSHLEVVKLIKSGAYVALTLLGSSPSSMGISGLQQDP

T12: SNTG2, Q9NY99
T12 sequence (Q9NY99 68-166, limits assumed, looked up): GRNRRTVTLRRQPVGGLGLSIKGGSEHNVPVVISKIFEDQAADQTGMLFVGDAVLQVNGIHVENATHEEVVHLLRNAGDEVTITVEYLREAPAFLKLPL

T13: APBA2_2, Q99767
T13 sequence (Q99767 654-744, limits assumed, looked up): T10 sequence (Q02410 742-832, limits assumed, looked up) with R10K, R15K, P59A, H65Q, I66A, A70S, Y84F, A89G

T14: DLG3_3, Q92796
T14 sequence (Q92796 374-475, limits assumed, looked up): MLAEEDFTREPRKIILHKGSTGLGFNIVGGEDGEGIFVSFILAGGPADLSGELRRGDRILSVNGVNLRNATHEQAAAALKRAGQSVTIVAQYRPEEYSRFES

B1: KIRREL1, Q96J84 (peptide)
chain: RFQQRMQTHV
B2: CCRL2, O00421 (peptide)
chain: REEPDHSTEV

The binders below were run against NHERF2_2, Q15599 (assay: holdup assay). Conditions: plain residues with an end cap or a label only (N-terminal biotin on a linker: ado-ado).
Design: key: below the threshold = too weak to quantify, mostly under pKd 3.1 to 4

Sequence of NHERF2_2, Q15599 (Q15599 142-238): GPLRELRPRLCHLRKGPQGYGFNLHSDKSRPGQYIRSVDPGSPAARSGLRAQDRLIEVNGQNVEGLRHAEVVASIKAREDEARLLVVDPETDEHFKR

Binder | pKd
B1 | 3.57
B2 | 3.65

The binders below were run against T1, MPP6, Q9NZW5 (assay: holdup assay). Conditions: plain residues with an end cap or a label only (N-terminal biotin on a linker: ado-ado).
Design: key: below the threshold = too weak to quantify, mostly under pKd 3.1 to 4

Binder | pKd
B1 | below the threshold
B2 | below the threshold

These binders were tested against PARD3_3, Q8TEW0 (assay: holdup assay). Conditions: plain residues with an end cap or a label only (N-terminal biotin on a linker: ado-ado).
Design: key: below the threshold = too weak to quantify, mostly under pKd 3.1 to 4

Sequence of PARD3_3, Q8TEW0 (Q8TEW0 582-685): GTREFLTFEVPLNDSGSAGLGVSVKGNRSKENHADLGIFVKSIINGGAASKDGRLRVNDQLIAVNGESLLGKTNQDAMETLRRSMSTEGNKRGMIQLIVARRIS

Binder | pKd
B1 | below the threshold
B2 | 3.61

These binders were tested against DLG5_1, Q8TDM6 (assay: holdup assay). Conditions: plain residues with an end cap or a label only (N-terminal biotin on a linker: ado-ado).
Design: key: below the threshold = too weak to quantify, mostly under pKd 3.1 to 4

Sequence of DLG5_1, Q8TDM6 (Q8TDM6 617-713): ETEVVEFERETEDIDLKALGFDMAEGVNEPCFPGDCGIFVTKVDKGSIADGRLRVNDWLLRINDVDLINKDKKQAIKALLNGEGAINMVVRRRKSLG

Binder | pKd
B1 | below the threshold
B2 | 3.63

The binders below were run against Inadl_4, Q8NI35 (assay: holdup assay). Conditions: plain residues with an end cap or a label only (N-terminal biotin on a linker: ado-ado).
Design: key: below the threshold = too weak to quantify, mostly under pKd 3.1 to 4

Sequence of Inadl_4, Q8NI35 (Q8NI35 547-651): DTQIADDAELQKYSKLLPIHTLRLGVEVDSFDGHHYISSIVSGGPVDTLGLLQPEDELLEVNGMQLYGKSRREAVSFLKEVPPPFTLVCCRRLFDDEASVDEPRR

Binder | pKd
B1 | below the threshold
B2 | below the threshold

Each binder was assayed against MAST1, Q9Y2H9 (assay: holdup assay). Conditions: plain residues with an end cap or a label only (N-terminal biotin on a linker: ado-ado).
Design: key: below the threshold = too weak to quantify, mostly under pKd 3.1 to 4

Sequence of MAST1, Q9Y2H9 (Q9Y2H9 962-1065): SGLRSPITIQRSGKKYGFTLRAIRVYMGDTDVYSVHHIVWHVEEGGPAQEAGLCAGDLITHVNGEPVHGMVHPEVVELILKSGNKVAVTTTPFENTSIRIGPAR

Binder | pKd
B1 | 4.76
B2 | 4.74

The binders below were run against DLG2_3, Q15700 (assay: holdup assay). Conditions: plain residues with an end cap or a label only (N-terminal biotin on a linker: ado-ado).
Design: key: below the threshold = too weak to quantify, mostly under pKd 3.1 to 4

Binder | pKd
B1 | 4.48
B2 | below the threshold

These binders were tested against GRID2IP_2, A4D2P6 (assay: holdup assay). Conditions: plain residues with an end cap or a label only (N-terminal biotin on a linker: ado-ado).
Design: key: below the threshold = too weak to quantify, mostly under pKd 3.1 to 4

Sequence of GRID2IP_2, A4D2P6 (A4D2P6 272-370): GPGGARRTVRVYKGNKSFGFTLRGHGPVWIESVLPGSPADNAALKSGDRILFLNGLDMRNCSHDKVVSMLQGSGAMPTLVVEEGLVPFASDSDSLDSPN

Binder | pKd
B1 | 3.96
B2 | 4.15

What follows are binders tested against T2, GRIP1_3, Q9Y3R0 (assay: holdup assay). Conditions: plain residues with an end cap or a label only (N-terminal biotin on a linker: ado-ado).
Design: key: below the threshold = too weak to quantify, mostly under pKd 3.1 to 4

Binder | pKd
B1 | below the threshold
B2 | below the threshold

What follows are binders tested against T3, HTRA4, P83105 (assay: holdup assay). Conditions: plain residues with an end cap or a label only (N-terminal biotin on a linker: ado-ado).
Design: key: below the threshold = too weak to quantify, mostly under pKd 3.1 to 4

Binder | pKd
B1 | 4.14
B2 | below the threshold

Each binder was assayed against GRIP2_5, Q9C0E4 (assay: holdup assay). Conditions: plain residues with an end cap or a label only (N-terminal biotin on a linker: ado-ado).
Design: key: below the threshold = too weak to quantify, mostly under pKd 3.1 to 4

Sequence of GRIP2_5, Q9C0E4 (Q9C0E4 544-642): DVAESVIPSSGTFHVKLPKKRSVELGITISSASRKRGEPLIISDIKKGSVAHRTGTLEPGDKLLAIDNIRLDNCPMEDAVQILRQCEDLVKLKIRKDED

Binder | pKd
B1 | below the threshold
B2 | below the threshold

Each binder was assayed against T4, APBA1_1, Q02410 (assay: holdup assay). Conditions: plain residues with an end cap or a label only (N-terminal biotin on a linker: ado-ado).
Design: key: below the threshold = too weak to quantify, mostly under pKd 3.1 to 4

Binder | pKd
B1 | below the threshold
B2 | below the threshold

These binders were tested against IL16_1, Q14005 (assay: holdup assay). Conditions: plain residues with an end cap or a label only (N-terminal biotin on a linker: ado-ado).
Design: key: below the threshold = too weak to quantify, mostly under pKd 3.1 to 4

Sequence of IL16_1, Q14005 (Q14005 210-306): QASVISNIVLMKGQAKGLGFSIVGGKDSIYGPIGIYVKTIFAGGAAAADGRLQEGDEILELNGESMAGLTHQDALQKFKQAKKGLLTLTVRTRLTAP

Binder | pKd
B1 | below the threshold
B2 | 3.59

What follows are binders tested against T5, DFNB31_1, Q9P202 (assay: holdup assay). Conditions: plain residues with an end cap or a label only (N-terminal biotin on a linker: ado-ado).
Design: key: below the threshold = too weak to quantify, mostly under pKd 3.1 to 4

Binder | pKd
B1 | 3.52
B2 | 4.03

These binders were tested against T6, GRIP1_2, Q9Y3R0 (assay: holdup assay). Conditions: plain residues with an end cap or a label only (N-terminal biotin on a linker: ado-ado).
Design: key: below the threshold = too weak to quantify, mostly under pKd 3.1 to 4

Binder | pKd
B1 | below the threshold
B2 | 3.5

The binders below were run against IL16_3, Q14005 (assay: holdup assay). Conditions: plain residues with an end cap or a label only (N-terminal biotin on a linker: ado-ado).
Design: key: below the threshold = too weak to quantify, mostly under pKd 3.1 to 4

Sequence of IL16_3, Q14005 (Q14005 1107-1207): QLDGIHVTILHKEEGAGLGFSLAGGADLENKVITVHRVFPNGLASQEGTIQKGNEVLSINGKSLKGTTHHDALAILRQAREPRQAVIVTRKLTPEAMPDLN

Binder | pKd
B1 | below the threshold
B2 | below the threshold

Each binder was assayed against T7, GRIP1_4, Q9Y3R0 (assay: holdup assay). Conditions: plain residues with an end cap or a label only (N-terminal biotin on a linker: ado-ado).
Design: key: below the threshold = too weak to quantify, mostly under pKd 3.1 to 4

Binder | pKd
B1 | below the threshold
B2 | below the threshold

The binders below were run against T8, PDZD7_3, Q9H5P4 (assay: holdup assay). Conditions: plain residues with an end cap or a label only (N-terminal biotin on a linker: ado-ado).
Design: key: below the threshold = too weak to quantify, mostly under pKd 3.1 to 4

Binder | pKd
B1 | 4.5
B2 | 4.31

What follows are binders tested against T9, MPP7, Q5T2T1 (assay: holdup assay). Conditions: plain residues with an end cap or a label only (N-terminal biotin on a linker: ado-ado).
Design: key: below the threshold = too weak to quantify, mostly under pKd 3.1 to 4

Binder | pKd
B1 | below the threshold
B2 | below the threshold

Each binder was assayed against T10, APBA1_2, Q02410 (assay: holdup assay). Conditions: plain residues with an end cap or a label only (N-terminal biotin on a linker: ado-ado).
Design: key: below the threshold = too weak to quantify, mostly under pKd 3.1 to 4

Binder | pKd
B1 | 3.92
B2 | 3.9

Each binder was assayed against T11, ARHGEF11, O15085 (assay: holdup assay). Conditions: plain residues with an end cap or a label only (N-terminal biotin on a linker: ado-ado).
Design: key: below the threshold = too weak to quantify, mostly under pKd 3.1 to 4

Binder | pKd
B1 | 4.19
B2 | 4.77

The binders below were run against T12, SNTG2, Q9NY99 (assay: holdup assay). Conditions: plain residues with an end cap or a label only (N-terminal biotin on a linker: ado-ado).
Design: key: below the threshold = too weak to quantify, mostly under pKd 3.1 to 4

Binder | pKd
B1 | below the threshold
B2 | 3.73

These binders were tested against T13, APBA2_2, Q99767 (assay: holdup assay). Conditions: plain residues with an end cap or a label only (N-terminal biotin on a linker: ado-ado).
Design: key: below the threshold = too weak to quantify, mostly under pKd 3.1 to 4

Binder | pKd
B1 | below the threshold
B2 | below the threshold

The binders below were run against T14, DLG3_3, Q92796 (assay: holdup assay). Conditions: plain residues with an end cap or a label only (N-terminal biotin on a linker: ado-ado).
Design: key: below the threshold = too weak to quantify, mostly under pKd 3.1 to 4

Binder | pKd
B1 | 3.94
B2 | 3.6
